# Reference: IntAct's records for PubMed 19135897
# B1: Mitochondrial Rho GTPase 1 (Homo sapiens), Q8IXI2 (parent)
# chain: MKKDVRILLVGEPRVGKTSLIMSLVSEEFPEEVPPRAEEITIPADVTPERVPTHIVDYSEAEQSDEQLHQEISQANVICIVYAVNNKHSIDKVTSRWIPLINERTDKDSRLPLILVGNKSDLVEYSSMETILPIMNQYTEIETCVECSAKNLKNISELFYYAQKAVLHPTGPLYCPEEKEMKPACIKALTRIFKISDQDNDGTLNDAELNFFQRICFNTPLAPQALEDVKNVVRKHISDGVADSGLTLKGFLFLHTLFIQRGRHETTWTVLRRFGYDDDLDLTPEYLFPLLKIPPDCTTELNHHAYLFLQSTFDKHDLDRDCALSPDELKDLFKVFPYIPWGPDVNNTVCTNERGWITYQGFLSQWTLTTYLDVQRCLEYLGYLGYSILTEQESQASAVTVTRDKKIDLQKKQTQRNVFRCNVIGVKNCGKSGVLQALLGRNLMRQKKIREDHKSYYAINTVYVYGQEKYLLLHDISESEFLTEAEIICDVVCLVYDVSNPKSFEYCARIFKQHFMDSRIPCLIVAAKSDLHEVKQEYSISPTDFCRKHKMPPPQAFTCNTADAPSKDIFVKLTTMAMYPHVTQADLKSSTFWLRASFGATVFAVLGFAMYKALLKQR
# B2: Mitochondrial Rho GTPase (Drosophila melanogaster (Fruit fly)), Q8IMX7 (parent)
# chain: MGQYTASQRKNVRILLVGDAGVGKTSLILSLVSEEYPEEVPPRAEEITIPANVTPEQVPTSIVDFSAVEQSEDALAAEINKAHVVCIVYAVDDDDTLDRITSHWLPLVRAKCNPSLDGEGDAEAEAEGDTQREPIRKPIVLVGNKIDLIEYSTMDSVLAIMEDYPEIESCVECSAKSLHNISEMFYYAQKAVLHPTSPLYMMEEQELTSACKKSLVRIFKICDIDGDNLLNDYELNLFQRRCFNTPLQPQILDEVKAVIQKNVPDGIYNDAVTLKGFLFLHCLFIQRGRNETTWAVLRRFGYNDQLEMCQEYLRPPLKIPPGSSTELSHRGQQFLIAVFERYDRDGDGALSPEEHKMLFSTCPAAPWSYSTDIRKSCPINETTGWVTLHGWLCRWTLMTLIDVVKTMEYLAYLGFNVHENDSQLAAIHVTRERRIDLAKRQSSRSVYKCHVIGPKGSGKTGMCRGFLVEDMHKLIGKEFKTNVVNCINSVQVYGQEKHLILRDIDVRHALDPLQPQEVNCDVACLVYDSSNPRSFEYVARIYIKYYAESKIPVMIVGTKCDMDERRQDYLMQPSEFCDKYKLLPPHLFSLKTNKKELYTKLATMAAFPHLRQFGLMTEDPKLWLKAGLGVAAATMLGFIVLKTISAAGAHTR
# Experiments:
# [1] = variants of: B1; conditions: with kif5c_rat Kif5c
# [2] = variants of: B1; conditions: with kif5c_rat Kif5c; remark: listed apart in the source
# [3] = variants of: B1; conditions: with kif5c_human KIF5C
# [4] = variants of: B2; conditions: with kinh_rat Kif5b
effect of a mutation on the interaction [1],effect of a mutation on the interaction [2],effect of a mutation on the interaction [3],effect of a mutation on the interaction [4],Variant
decreasing interaction,decreasing interaction,decreasing interaction strength,,E208K;E328K
,,,decreasing interaction,E234K;D345K
